Results from US20090054319A1, “Methods and Compositions for the Treatment of Hypertension and Gastrointestinal Disorders” (MICROBIA, INC., priority 2005, published 2009).
Bridges are numbered along the chain shown (N, C = ends). Where no end group is shown, it is not given here.

Legend:
[1] = test system: intestinal fluid secretion; settings: suckling mouse model; Santos-Neto et al 2003 Pharm & Toxicol 92:114; cited from earlier work
chymotrypsin [2] = target: T1, chymotrypsin (Bos taurus, UniProt P00766, DEL14-15/DEL147-148); assay: T84 cGMP assay to assess guanylin activity after a chymotrypsin digestion assay (guanylin degradation assay); type: biochemical, bovine; settings: T84 cells, FIG. 1
T1 construct: purchased Sigma C6423
Procedure: Since guanylin is susceptible to digestion by chymotrypsin, chymotrypsin activity can be assayed based on guanylin cleavage. […] From this stock, six (6) 500 μl aliquots were prepared in 2 ml Eppendorf tubes and labeled “Control”, “T0”, “T15”, “T30”, “T60”, and “T180”, with “T_” representing timepoints, in minutes. 5 μl of a 10 mM chymostatin (Sigma, C7268) stock (5 mg of chymostatin resuspended in 824 μl of DMSO) was added to the “Control” samples and all samples were incubated for 5 minutes at 30° C. Chymostatin inhibits chymotrypsin activity and this sample served as a negative control. Next, 20 μl of a chymotrypsin (Sigma, C6423) enzyme solution (0.01 mg/ml bovine chymotrypsin enzyme in 1 mM HCl, 2 mM Calcium Chloride) were added to the samples and mixed by inversion. Samples are incubated at 30° C. […] Determination of sensitivity to digestion by chymotrypsin was determined by LCMS analysis and by in vitro activity in the T84 cGMP assays described below.
The ability of guanylin to activate the intestinal GC-C receptor was assessed in an assay employing the T84 human colon carcinoma cell line (American Type Culture Collection (Bethesda, Md.). For the assays cells were grown to confluency in 24-well culture plates with a 1:1 mixture of Ham's F12 medium and Dulbecco's modified Eagle's medium (DMEM), supplemented with 5% fetal calf serum and were used at between passages 54 and 60. […]

chymotrypsin [3] = settings: cited from earlier work

bovine chymotrypsin enzyme (Sigma, C6423)
guanylin degradation assay: loss of guanylin-stimulated cGMP activity and LC/MS of guanylin processing (Guanylin (Sigma, G-116)): guanylin stimulated cGMP activity decreases over time in the presence of chymotrypsin

CC(C)C[C@H](NC(=O)[C@@H](NC(=O)N[C@@H](Cc1ccccc1)C(=O)O)C1CCNC(=N)N1)C(=O)N[C@H](C=O)Cc1ccccc1 (stereo partly drawn) [chymostatin, N—(Na-Carbonyl-[S,S]-a-(2-Iminohexahydro-4-pyrimidyl)glycine)-X-Phe-al)-Phe where X is Leu, Val or Ile]
guanylin-induced intestinal fluid secretion [1]: required in order to observe guanylin-induced intestinal fluid secretion | guanylin stimulated cGMP activity when chymotrypsin inhibitor present (chymotrypsin [2]; chymostatin present during chymotrypsin digestion of guanylin): retained | chymotrypsin-mediated inactivation of guanylin (chymotrypsin [3]): can be prevented

guanylin: intestinal peptide that stimulates chloride secretion; mature protein has 15 amino acids; agonist of the GC-C receptor (PGTCEICAYAACTGC; disulfide 4-12, 7-15; UniProt Q02747 101-115, looked up)
guanylin stimulated cGMP activity (chymotrypsin [2]; in the presence of chymotrypsin, timepoints 0-180 min at 30° C.): decreases over time | cleavage of guanylin by chymotrypsin (chymotrypsin [3]; Greenberg et al. J Investig Med 45:276-82, 1997): chymotrypsin can cleave guanylin
